From the supplement of paper PMC10567573

B1: PRAME (parent)
chain: KKLKIFAMPMQDIKMILKMVQLDS

Variants of: B1
Test: protein stability index of a GFP-peptide fusion (GPS, HEK-293T) (PSI 1-6); higher = more stable
Settings: c terminus: a fixed tail appended
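Note: lentivirally expressed fusions sorted by FACS into six bins by GFP to DsRed ratio, PSI derived from sequencing read proportions per bin multiplied by bin number.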

| Variant | protein stability index |
| --- | --- |
| KKLKIFALPMQDIKMILKMVQLDS | 2.91 |
| KKLKIFAPPMQDIKMILKMVQLDS | 1.72 |
| KKLKIFASPMQDIKMILKMVQLDS | 2.46 |
| KKLKIFANPMQDIKMILKMVQLDS | 3.02 |
| KKLKIFACPMQDIKMILKMVQLDS | 4.6 |
| KKLKIFAAPMQDIKMILKMVQLDS | 2.02 |
| KKLKIFAKPMQDIKMILKMVQLDS | 2.42 |
| KKLKIFAEPMQDIKMILKMVQLDS | 1.39 |
| KKLKIFAHPMQDIKMILKMVQLDS | 3.92 |
| KKLKIFADPMQDIKMILKMVQLDS | 3.23 |
| KKLKIFATPMQDIKMILKMVQLDS | 2.71 |
| KKLKIFAWPMQDIKMILKMVQLDS | 4.52 |
| KKLKIFAMPMQDIKMIMKMVQLDS | 2.59 |
| KKLKIFAMPMQDIKMIHKMVQLDS | 2.39 |
| KKLKIFAMPMQDIKMIPKMVQLDS | 2.27 |
| KKLKIFAMPMQDIKMINKMVQLDS | 1.5 |
| KKLKIFAMPMQDIKMIAKMVQLDS | 2.66 |
| KKLKIFAMPMQDIKMISKMVQLDS | 2.1 |
| KKLKIFAMPMQDIKMIKKMVQLDS | 2.11 |
| KKLKIFAMPMQDIKMIGKMVQLDS | 1.71 |
| KKLKIFAMPMQDIKMIIKMVQLDS | 2.19 |
| KKLKIFAMPMQDIKMIYKMVQLDS | 3.8 |
| KKLKIFAMPMQDIKMIEKMVQLDS | 2.04 |
| KKLKIFAMPMQDIKMICKMVQLDS | 2.73 |

| Variant | protein stability index |
| --- | --- |
| KKLKIFAMPMQDIKMIQKMVQLDS | 1.62 |
| KKLKIFAMPMQDIKMIWKMVQLDS | 2.06 |
| KKLKIFAMPMQDIKMIDKMVQLDS | 1.88 |
| KKLKIFAMPMQDIKMIVKMVQLDS | 2.64 |
| KKLKIFAMPMQDIKMITKMVQLDS | 1.12 |
| KKLKIFAMPMQDIKMIRKMVQLDS | 1.75 |
| KKLKIFAMTMQDIKMILKMVQLDS | 4.36 |
| KKLKIFAMFMQDIKMILKMVQLDS | 2.42 |
| KKLKIFAMVMQDIKMILKMVQLDS | 2.94 |
| KKLKIFAMNMQDIKMILKMVQLDS | 1.79 |
| KKLKIFAMWMQDIKMILKMVQLDS | 4.76 |
| KKLKIFAMIMQDIKMILKMVQLDS | 2.11 |
| KKLKIFAMLMQDIKMILKMVQLDS | 1.62 |
| KKLKIFAMCMQDIKMILKMVQLDS | 2.96 |
| KKLKIFAMYMQDIKMILKMVQLDS | 1.43 |
| KKLKIFAMHMQDIKMILKMVQLDS | 2.22 |
| KKLKIFAMPRQDIKMILKMVQLDS | 2.7 |
| KKLKIFAMPAQDIKMILKMVQLDS | 1.93 |
| KKLKIFAMPVQDIKMILKMVQLDS | 3.74 |
| KKLKIFAMPPQDIKMILKMVQLDS | 2.72 |
| KKLKIFAMPYQDIKMILKMVQLDS | 2.52 |
| KKLKIFAMPTQDIKMILKMVQLDS | 2.93 |
| KKLKIFAMPDQDIKMILKMVQLDS | 2.39 |
| KKLKIFAMPGQDIKMILKMVQLDS | 3.5 |

| Variant | protein stability index |
| --- | --- |
| KKLKIFAMPHQDIKMILKMVQLDS | 2.12 |
| KKLKIFAMPQQDIKMILKMVQLDS | 1.93 |
| KKLKIFAMPKQDIKMILKMVQLDS | 2.06 |
| KKLKIFAMPEQDIKMILKMVQLDS | 3.14 |
| KKLKIFAMPNQDIKMILKMVQLDS | 2.7 |
| KKLKIFAMPCQDIKMILKMVQLDS | 2.5 |
| KKLKIFAMPMQDNKMILKMVQLDS | 1.54 |
| KKLKIFAMPMQDTKMILKMVQLDS | 1.64 |
| KKLKIFAMPMQDSKMILKMVQLDS | 2.45 |
| KKLKIFAMPMQDMKMILKMVQLDS | 2.88 |
| KKLKIFAMPMQDRKMILKMVQLDS | 2.96 |
| KKLKIFAMPMQDYKMILKMVQLDS | 4.03 |
| KKLKIFAMPMQDVKMILKMVQLDS | 3.55 |
| KKLKIFAMPMQDAKMILKMVQLDS | 2.39 |
| KKLKIFAMPMQDFKMILKMVQLDS | 2.23 |
| KKLKIFAMPMQDEKMILKMVQLDS | 1.65 |
| KKLKIFAMPMQDKKMILKMVQLDS | 1.44 |
| KKLKIFAMPMQDDKMILKMVQLDS | 2.66 |
| KKLKIFAMPMQDPKMILKMVQLDS | 1.32 |
| KKLKIFAMPMQDQKMILKMVQLDS | 1.93 |
| KKLKIFAMPMQDWKMILKMVQLDS | 1.03 |
| KKLKIFAMPMQDHKMILKMVQLDS | 1.84 |
| KKLKIFAMPMMDIKMILKMVQLDS | 2.31 |
| KKLKIFAMPMGDIKMILKMVQLDS | 3.84 |

| Variant | protein stability index |
| --- | --- |
| KKLKIFAMPMHDIKMILKMVQLDS | 3.43 |
| KKLKIFAMPMVDIKMILKMVQLDS | 2.19 |
| KKLKIFAMPMNDIKMILKMVQLDS | 2.79 |
| KKLKIFAMPMYDIKMILKMVQLDS | 3.22 |
| KKLKIFAMPMWDIKMILKMVQLDS | 3.08 |
| KKLKIFAMPMTDIKMILKMVQLDS | 2.39 |
| KKLKIFAMPMPDIKMILKMVQLDS | 3.82 |
| KKLKIFAMPMCDIKMILKMVQLDS | 2.32 |
| KKLKIFAMPMADIKMILKMVQLDS | 3.71 |
| KKLKIFAMPMRDIKMILKMVQLDS | 4.36 |
| KKLKIFAMPMDDIKMILKMVQLDS | 2.47 |
| KKLKIFAMPMKDIKMILKMVQLDS | 3.32 |
| KKLKIFAMPMSDIKMILKMVQLDS | 2.52 |
| KKLKIFAMPMIDIKMILKMVQLDS | 2.57 |
| KKLKIFAMPMFDIKMILKMVQLDS | 3.43 |
| KKLKIFAMPMLDIKMILKMVQLDS | 2.85 |
| KKLKIFQMPMQDIKMILKMVQLDS | 2 |
| KKLKIFYMPMQDIKMILKMVQLDS | 4.92 |
| KKLKIFSMPMQDIKMILKMVQLDS | 3.04 |
| KKLKIFVMPMQDIKMILKMVQLDS | 2.83 |
| KKLKIFRMPMQDIKMILKMVQLDS | 2.61 |
| KKLKIFWMPMQDIKMILKMVQLDS | 3.77 |
